The values below come from the supplement of paper PMC7877785.

The data set can be described thus: self-splicing fitness, log relative to wild type (ln ratio); higher = more splicing; Tetrahymena group I intron in knt gene, E. coli kanamycin selection, DiMSum; sequences stand for … in CUCUCU…GGAGGGAAAAGUUAUCAGGCAUGCACCUGGUAGCUAGUCUUUAAACCAAUAGAUUGCAUCGGUUUAAAAGGCAAGACCGUCAAAUUGCGGGAAAGGGGUCAACAGCCGUUCAGUACCAAGUCUCAGGGGAAACUUUGAGAUGGCCUUGCAAAGGGUAUGGUAAUAAGCUGACGGACAUGGUCCUAACCACGCAGCCAAGUCCUAAGUCAACAGAUCUUCUGUUGAUAUGGAUGCAGUUCACAGACUAAAUGUCGGUCGGGGAAGAUGUAUUCUUCUCAUAAGAUAUAGUCGGACCUCUCCUUAAUGGGAGCUAGCGGAUGAAGUGAUGCAACACUGGAGCCGCUGGGAACUAAUUUGUAUGCGAAAGUAUAUUGAUUAGUUUUGGAGUACUCGUGGUCG
The procedure, abridged: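 Six replicate transformations of E. coli BL21(DE3) with a pET-22b(+) library were grown overnight at 37°C or 30°C. The library randomised all eight P1ex-region intron nucleotides, the intron lying in the knt kanamycin-resistance gene, and plates were LB agar with or without 25 μg/mL kanamycin plus 100 μg/mL carbenicillin, 50 μM IPTG and 0.2% rhamnose. Pooled colonies were amplicon-sequenced on an Illumina HiSeq 2500, and fitness is the DiMSum error-weighted combination of wild-type-normalised replicate fold changes, kanamycin versus none.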

± gives the uncertainty stated by the source.

ACAAAGCAAUAUUACGUCGG: the “self-splicing fitness (ln)” value (30 °C) was -2.14 ± 0.11 and the “self-splicing fitness (ln)” value (37 °C) is -0.989 ± 0.12.

As for CGCAAGCAAUAUUACGCUCA, the “self-splicing fitness (ln)” value was -0.828 ± 0.076 (30 °C) and -0.6 ± 0.088 (37 °C).

For GACCAGCAAUAUUACGCCGC, the “self-splicing fitness (ln)” value (30 °C) is -3.75 ± 0.32.

Regarding CGGCAGCAAUAUUACGAACC, the “self-splicing fitness (ln)” value is, setting by setting: (30 °C) -0.757 ± 0.33; (37 °C) -0.368 ± 0.37.

On to AUCAAGCAAUAUUACGAAGA, for which the “self-splicing fitness (ln)” value reads like this: (30 °C) -1.66 ± 0.19; (37 °C) -1.64 ± 0.23.

As for UAAAAGCAAUAUUACGCAGA, the “self-splicing fitness (ln)” value (30 °C) is -2.11 ± 0.093 and the “self-splicing fitness (ln)” value (37 °C) was -1.17 ± 0.086.

In the case of GAACAGCAAUAUUACGAACC, the “self-splicing fitness (ln)” value is, setting by setting: (30 °C) -1.6 ± 0.12; (37 °C) -0.809 ± 0.13.

For ACCUAGCAAUAUUACGGUUC, the “self-splicing fitness (ln)” value is, setting by setting: (30 °C) -4.77 ± 0.34; (37 °C) -2.62 ± 0.24.

As for UAGCAGCAAUAUUACGUACU, the “self-splicing fitness (ln)” value was -1.74 ± 0.1 (30 °C) and -0.434 ± 0.1 (37 °C).

As for CGGUAGCAAUAUUACGGGGU, the “self-splicing fitness (ln)” value is, setting by setting: (30 °C) -4.08 ± 0.3; (37 °C) -2.81 ± 0.22.

With UACUAGCAAUAUUACGUCAC, the “self-splicing fitness (ln)” value (30 °C) was -3.47 ± 0.26.

With ACGUAGCAAUAUUACGGCAA, the “self-splicing fitness (ln)” value (30 °C) is -1.49 ± 0.1 and the “self-splicing fitness (ln)” value (37 °C) was -1.15 ± 0.09.

On to GGGUAGCAAUAUUACGCAAG, for which the “self-splicing fitness (ln)” value by setting is: (30 °C) -1.59 ± 0.11; (37 °C) -0.847 ± 0.16.

With CACGAGCAAUAUUACGUGAC, the “self-splicing fitness (ln)” value (30 °C) was -2.72 ± 0.15 and the “self-splicing fitness (ln)” value (37 °C) was -2.44 ± 0.15.

As for GUGUAGCAAUAUUACGGCCU, the “self-splicing fitness (ln)” value (30 °C) was -0.169 ± 0.073 and the “self-splicing fitness (ln)” value (37 °C) was 0.685 ± 0.098.

As for UCCCAGCAAUAUUACGAAGC, the “self-splicing fitness (ln)” value is, setting by setting: (30 °C) -3.98 ± 0.42; (37 °C) -1.71 ± 0.24.

Regarding UACAAGCAAUAUUACGUUAG, the “self-splicing fitness (ln)” value is -3.02 ± 0.11 (30 °C) and -2.11 ± 0.097 (37 °C).

As for GAACAGCAAUAUUACGAGUA, the “self-splicing fitness (ln)” value is, setting by setting: (30 °C) -2.87 ± 0.12; (37 °C) -1.98 ± 0.1.

On to UGCUAGCAAUAUUACGAUAG, for which the “self-splicing fitness (ln)” value reads like this: (30 °C) -2.49 ± 0.1; (37 °C) -0.62 ± 0.1.

GACGAGCAAUAUUACGCGGG: the “self-splicing fitness (ln)” value is, setting by setting: (30 °C) -3.48 ± 0.47; (37 °C) -2.61 ± 0.36.

With UAUCAGCAAUAUUACGCUCC, the “self-splicing fitness (ln)” value was -1 ± 0.29 (30 °C) and -0.504 ± 0.31 (37 °C).

In the case of GAUUAGCAAUAUUACGUAGA, the “self-splicing fitness (ln)” value was -1.92 ± 0.15 (30 °C) and -0.933 ± 0.14 (37 °C).

GCCAAGCAAUAUUACGAGCU: the “self-splicing fitness (ln)” value reads like this: (30 °C) -1.35 ± 0.12; (37 °C) -1.46 ± 0.15.

For GGGGAGCAAUAUUACGGUUG, the “self-splicing fitness (ln)” value is -3.25 ± 0.21 (30 °C) and -2.18 ± 0.22 (37 °C).

GUUAAGCAAUAUUACGUAAU: the “self-splicing fitness (ln)” value is -2.09 ± 0.079 (30 °C) and -1.49 ± 0.089 (37 °C).

Regarding GUCAAGCAAUAUUACGUAAG, the “self-splicing fitness (ln)” value runs as follows: (30 °C) -2.15 ± 0.073; (37 °C) -1.57 ± 0.11.

Turning to AACGAGCAAUAUUACGGGCG, the “self-splicing fitness (ln)” value was -3.07 ± 0.15 (30 °C) and -1.11 ± 0.19 (37 °C).

With CCGGAGCAAUAUUACGCGAA, the “self-splicing fitness (ln)” value runs as follows: (30 °C) -3.59 ± 0.42; (37 °C) -2.41 ± 0.36.

With UGAUAGCAAUAUUACGUGGG, the “self-splicing fitness (ln)” value (30 °C) is -2.86 ± 0.17 and the “self-splicing fitness (ln)” value (37 °C) was -0.621 ± 0.11.

Turning to GCAAAGCAAUAUUACGGUAA, the “self-splicing fitness (ln)” value is -0.837 ± 0.12 (30 °C) and -0.921 ± 0.13 (37 °C).

On to ACACAGCAAUAUUACGGUUG, for which the “self-splicing fitness (ln)” value (30 °C) is -1.37 ± 0.066 and the “self-splicing fitness (ln)” value (37 °C) is -1.31 ± 0.11.

Regarding UAUGAGCAAUAUUACGCAGA, the “self-splicing fitness (ln)” value is -3.3 ± 0.29 (30 °C) and -2.6 ± 0.23 (37 °C).

Regarding CAUCAGCAAUAUUACGUAAU, the “self-splicing fitness (ln)” value is -2.56 ± 0.09 (30 °C) and -1.4 ± 0.1 (37 °C).

For UAUUAGCAAUAUUACGCGUC, the “self-splicing fitness (ln)” value is -4.05 ± 0.35 (30 °C) and -2.57 ± 0.26 (37 °C).

For the sequence CCCGAGCAAUAUUACGCUGU, the “self-splicing fitness (ln)” value runs as follows: (30 °C) -4.16 ± 0.31; (37 °C) -2.62 ± 0.27.

On to UGUCAGCAAUAUUACGAAGA, for which the “self-splicing fitness (ln)” value by setting is: (30 °C) -0.706 ± 0.11; (37 °C) -0.132 ± 0.11.

Regarding UAAGAGCAAUAUUACGAAUU, the “self-splicing fitness (ln)” value by setting is: (30 °C) -3.74 ± 0.43; (37 °C) -1.84 ± 0.49.

Regarding UUUCAGCAAUAUUACGCAUC, the “self-splicing fitness (ln)” value runs as follows: (30 °C) -2.79 ± 0.14; (37 °C) -0.623 ± 0.11.
